Experimental data reported in patent CN115677859A (HEFEI HANKEMAB BIOTECHNOLOGY CO LTD; ANHUI ANKE …, dated 2023).

T1: 猴4-1BB胞外段 (monkey 4-1BB extracellular domain) (monkey (猴), UniProt Q07011 24-186 (human entry))
T1 construct: also called 猴4-1BB抗原
T1 chain: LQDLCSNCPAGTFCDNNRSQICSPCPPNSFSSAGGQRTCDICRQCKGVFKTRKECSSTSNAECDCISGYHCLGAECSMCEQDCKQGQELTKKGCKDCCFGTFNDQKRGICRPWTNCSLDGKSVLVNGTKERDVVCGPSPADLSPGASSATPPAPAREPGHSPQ

B1: 抗人PD-L1/4-1BB双特异性抗体 结构B (anti-4-1BB scFv-(G4S)2-IgG4 Fc-(G4S)3-anti-PD-L1 Fab) (bispecific antibody)
heavy: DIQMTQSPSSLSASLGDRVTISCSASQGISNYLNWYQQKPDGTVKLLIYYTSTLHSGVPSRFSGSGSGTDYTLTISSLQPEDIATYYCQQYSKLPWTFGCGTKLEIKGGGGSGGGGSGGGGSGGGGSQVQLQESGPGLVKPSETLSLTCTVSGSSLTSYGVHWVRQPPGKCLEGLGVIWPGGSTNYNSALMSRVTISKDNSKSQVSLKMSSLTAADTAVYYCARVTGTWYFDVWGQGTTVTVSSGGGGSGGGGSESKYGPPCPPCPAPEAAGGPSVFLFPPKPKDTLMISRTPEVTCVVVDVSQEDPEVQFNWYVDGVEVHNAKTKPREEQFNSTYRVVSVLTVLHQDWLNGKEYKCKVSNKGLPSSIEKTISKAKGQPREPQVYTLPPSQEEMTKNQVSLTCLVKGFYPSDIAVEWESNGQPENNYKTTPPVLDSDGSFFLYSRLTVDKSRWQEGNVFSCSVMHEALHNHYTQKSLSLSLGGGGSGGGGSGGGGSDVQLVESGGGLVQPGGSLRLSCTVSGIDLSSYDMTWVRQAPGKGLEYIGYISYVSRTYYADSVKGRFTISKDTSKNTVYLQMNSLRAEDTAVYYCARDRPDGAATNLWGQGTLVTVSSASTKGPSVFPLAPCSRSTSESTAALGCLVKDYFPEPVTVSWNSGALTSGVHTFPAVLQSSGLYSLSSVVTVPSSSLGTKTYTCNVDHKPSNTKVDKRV
light: DIQMTQSPSTLSASVGDRVTITCQSSQNVYSNNRLSWYQQKPGKAPKLLIYWTSFLASGVPSRFSGSGSGTEFTLTISSLQPDDFATYYCAGGYSGNLYTFGQGTKLEIKRTVAAPSVFIFPPSDEQLKSGTASVVCLLNNFYPREAKVQWKVDNALQSGNSQESVTEQDSKDSTYSLSSTLTLSKADYEKHKVYACEVTHQGLSSPVTKSFNRGEC
notes: Two heavy and two light chains; human IgG4 Fc; also called B结构
B2: 抗人PD-L1/4-1BB双特异性抗体 D6 (结构D, D2的突变体, linker (G4S)3) (bispecific antibody, human IgG4 S228P, kappa, F234A L235A)
heavy: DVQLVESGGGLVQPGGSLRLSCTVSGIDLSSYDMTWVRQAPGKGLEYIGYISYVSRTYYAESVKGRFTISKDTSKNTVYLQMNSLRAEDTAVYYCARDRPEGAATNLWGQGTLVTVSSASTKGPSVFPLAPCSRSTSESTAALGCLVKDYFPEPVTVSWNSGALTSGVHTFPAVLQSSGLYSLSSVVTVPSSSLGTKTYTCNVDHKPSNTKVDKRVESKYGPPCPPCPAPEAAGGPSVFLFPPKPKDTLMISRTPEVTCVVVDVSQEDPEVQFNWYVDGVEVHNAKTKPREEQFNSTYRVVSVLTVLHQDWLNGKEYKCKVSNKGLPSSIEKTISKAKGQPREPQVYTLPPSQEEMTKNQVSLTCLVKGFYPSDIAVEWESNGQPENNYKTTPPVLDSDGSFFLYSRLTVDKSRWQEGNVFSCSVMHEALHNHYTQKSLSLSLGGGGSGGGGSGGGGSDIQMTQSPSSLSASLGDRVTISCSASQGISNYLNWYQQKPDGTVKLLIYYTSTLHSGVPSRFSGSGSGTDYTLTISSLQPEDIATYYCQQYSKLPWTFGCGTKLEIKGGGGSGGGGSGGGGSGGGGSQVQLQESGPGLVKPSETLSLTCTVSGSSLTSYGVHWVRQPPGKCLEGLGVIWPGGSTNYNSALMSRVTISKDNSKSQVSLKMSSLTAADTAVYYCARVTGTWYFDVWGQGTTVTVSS
light: B1 light
notes: Anti-PD-L1 IgG4 with an anti-4-1BB scFv at the C-terminus of each heavy chain
B3: 抗人PD-L1/4-1BB双特异性抗体 D3 (结构D, D1的突变体, linker A(EAAAK)4ALE) (bispecific antibody, human IgG4 S228P, kappa, F234A L235A)
heavy: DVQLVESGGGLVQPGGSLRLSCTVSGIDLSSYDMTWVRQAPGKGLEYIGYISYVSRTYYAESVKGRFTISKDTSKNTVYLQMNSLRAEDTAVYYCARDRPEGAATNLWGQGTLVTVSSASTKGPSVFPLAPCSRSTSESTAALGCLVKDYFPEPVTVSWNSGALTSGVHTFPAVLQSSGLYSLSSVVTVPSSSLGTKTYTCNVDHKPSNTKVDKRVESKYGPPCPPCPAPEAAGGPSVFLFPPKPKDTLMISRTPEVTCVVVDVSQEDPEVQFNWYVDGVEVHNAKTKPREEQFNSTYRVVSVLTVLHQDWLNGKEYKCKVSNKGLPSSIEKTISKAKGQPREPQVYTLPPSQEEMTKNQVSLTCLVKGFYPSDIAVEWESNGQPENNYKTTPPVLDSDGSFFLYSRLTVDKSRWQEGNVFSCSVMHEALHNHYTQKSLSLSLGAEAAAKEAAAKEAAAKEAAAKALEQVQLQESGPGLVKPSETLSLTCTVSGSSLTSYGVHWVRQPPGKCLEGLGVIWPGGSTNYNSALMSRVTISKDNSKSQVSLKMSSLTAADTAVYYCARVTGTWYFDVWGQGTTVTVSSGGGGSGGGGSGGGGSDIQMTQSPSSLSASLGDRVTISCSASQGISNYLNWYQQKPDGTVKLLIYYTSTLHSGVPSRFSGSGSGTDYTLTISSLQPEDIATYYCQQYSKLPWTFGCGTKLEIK
light: B1 light
notes: as for B2

Tests used:
[1] = target: T2, 人4-1BB全长, 表达于细胞 (CHO-K1/h4-1BB; HEK-293/NFκB-Luci/4-1BB) (human, UniProt Q07011 24-255); assay: flow cytometry on CHO-K1/h4-1BB cells
T2 construct: also called 细胞表面人4-1BB抗原
T2 sequence (Q07011 24-255 limits assumed): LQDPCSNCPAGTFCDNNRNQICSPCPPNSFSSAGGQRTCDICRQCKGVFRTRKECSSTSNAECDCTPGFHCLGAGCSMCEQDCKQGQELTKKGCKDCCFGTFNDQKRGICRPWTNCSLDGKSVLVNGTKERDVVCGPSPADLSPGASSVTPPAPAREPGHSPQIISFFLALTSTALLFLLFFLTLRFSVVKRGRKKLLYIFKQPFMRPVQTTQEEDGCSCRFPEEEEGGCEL

[2] = target: T3, 人PD-L1全长, 表达于CHO-K1细胞 (CHO-K1/hPD-L1; CHO-K1/PDL1/TCR) (human, UniProt Q9NZQ7 19-290); assay: flow cytometry on CHO-K1/hPD-L1 cells, anti-human FITC
T3 construct: Full-length human PD-L1 transfected into CHO-K1 cells; also called 细胞表面人PD-L1抗原
T3 sequence (Q9NZQ7 19-290 limits assumed): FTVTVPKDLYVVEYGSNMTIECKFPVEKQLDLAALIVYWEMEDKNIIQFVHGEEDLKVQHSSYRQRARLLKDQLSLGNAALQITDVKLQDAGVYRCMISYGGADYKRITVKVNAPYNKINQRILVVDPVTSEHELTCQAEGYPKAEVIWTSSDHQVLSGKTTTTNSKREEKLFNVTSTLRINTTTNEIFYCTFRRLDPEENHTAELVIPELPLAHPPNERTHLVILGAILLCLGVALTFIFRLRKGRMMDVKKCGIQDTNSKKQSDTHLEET

[3] = target: T3, 人PD-L1全长, 表达于CHO-K1细胞 (CHO-K1/hPD-L1; …); assay: flow cytometry on CHO-K1/hPD-L1 cells, 4-parameter logistic fit
[4] = target: T4, 人4-1BB胞外段, 带鼠Fc标签 (human 4-1BB extracellular domain with mouse Fc tag, Example 5) (human, UniProt Q07011 24-186); assay: bridging ELISA: PD-L1-His coated, bispecific, then 4-1BB-mouse Fc, anti-mouse HRP
T4 construct: also called 抗原人4-1BB; not shown: mouse Fc tag

[5] = target: T5, 人4-1BB胞外段 (human 4-1BB extracellular domain, HEK293-expressed, Example 4) (human, UniProt Q07011 24-186); assay: ELISA, human 4-1BB ECD coated, anti-human IgG HRP
T5 construct: also called 人4-1BB抗原; CD137

[6] = target: T1, 猴4-1BB胞外段 (monkey 4-1BB extracellular …); assay: ELISA, monkey 4-1BB ECD coated, anti-human HRP
[7] = target: T6, 猴PD-L1胞外段 (monkey PD-L1 extracellular domain) (monkey (猴), UniProt Q9NZQ7 19-238 (human entry)); assay: ELISA, monkey PD-L1 ECD coated, anti-human HRP
T6 construct: also called 猴PD-L1抗原
T6 sequence (Q9NZQ7 other isoform, or with tags, fused parts or gaps): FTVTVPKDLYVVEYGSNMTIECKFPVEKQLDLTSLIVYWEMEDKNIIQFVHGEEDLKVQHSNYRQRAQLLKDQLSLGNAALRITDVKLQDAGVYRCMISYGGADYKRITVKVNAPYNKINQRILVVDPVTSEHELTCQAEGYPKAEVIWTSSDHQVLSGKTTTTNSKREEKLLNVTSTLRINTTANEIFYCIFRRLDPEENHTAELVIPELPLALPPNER

Row | Binder | binding result [1] | FACS fluorescence signal at 0.308 nM (name of read-out not given) [2] | FACS fluorescence signal at 0.617 nM (name of read-out not given) [2] | FACS fluorescence signal at 1.851 nM (name of read-out not given) [2] | FACS fluorescence signal at 5.555 nM (name of read-out not given) [2] | FACS fluorescence signal at 16.666 nM (name of read-out not given) [2] | FACS fluorescence signal at 50 nM (name of read-out not given) [2] | EC50 [3] | binding result [4] | binding result [5] | binding result [6] | binding result [7]
1 | B1 | binds | 617 | 889 | 1450 | 4430 | 8220 | 8490 | 5.82 nM | binds | binds | – | –
2 | B2 | binds | 516 | 654 | 1190 | 2950 | 8400 | 8920 | 7.6 nM | binds | binds | binds | binds
3 | B3 | – | 543 | 708 | 1390 | 3820 | 8710 | 8870 | 6.59 nM | – | – | – | –
